1 molecule from article doi:10.1101/2024.02.14.580290 (bioRxiv, 2024) can be followed below.

For this assay, the target named is rat Gβ1 with Hexa-His-tag (in purified Gαsβ1γ2) (rat, UniProt P54311 2-340). Briefly: cross-linking.

B1: bovine Gαs short subunit (in purified Gαsβ1γ2) (natural protein)
chain: MGCLGNSKTEDQRNEEKAQREANKKIEKQLQKDKQVYRATHRLLLLGAGESGKSTIVKQMRILHVNGFNGDGEKATKVQDIKNNLKEAIETIVAAMSNLVPPVELANPENQFRVDYILSVMNVPDFDFPPEFYEHAKALWEDEGVRACYERSNEYQLIDCAQYFLDKIDVIKQDDYVPSDQDLLRCRVLTSGIFETKFQVDKVNFHMFDVGGQRDERRKWIQCFNDVTAIIFVVASSSYNMVIREDNQTNRLQEALNLFKSIWNNRWLRTISVILFLNKQDLLAEKVLAGKSKIEDYFPEFARYTTPEDATPEPGEDPRVTRAKYFIRDEFLRISTASGDGRHYCYPHFTCAVDTENIRRVFNDCRDIIQRMHLRQYELL
On to B1, for which the binding result is reported as “binds”.
